These results are taken from PMC6984350 (Structure (London, England : 1993), 2018).

Some results are limits rather than exact numbers.

The labels stand for the following.
T1: Filamin A domains 4-6, wild type (human, UniProt P21333 571-861)
T1 sequence (looked up): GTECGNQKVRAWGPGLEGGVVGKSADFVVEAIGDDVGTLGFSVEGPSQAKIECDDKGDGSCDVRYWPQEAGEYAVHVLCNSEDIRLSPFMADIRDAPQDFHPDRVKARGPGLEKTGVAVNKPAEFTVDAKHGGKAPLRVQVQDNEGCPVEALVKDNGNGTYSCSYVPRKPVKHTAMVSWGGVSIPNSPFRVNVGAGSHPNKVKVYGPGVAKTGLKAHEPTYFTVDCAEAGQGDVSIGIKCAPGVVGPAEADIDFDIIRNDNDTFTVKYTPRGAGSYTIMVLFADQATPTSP

B1: PTPN12 600–673 (domain or fragment, UniProt Q05209 600-673, looked up)
chain: PLHSDDSDSDERNSDGAVTQNKTNISTASATVSAATSTESISTRKVLPMSIARHNIAGTTHSGAEKDVDVSEDS
B2: PTPN12–600-634 (domain or fragment, UniProt Q05209 600-634, looked up)
chain: PLHSDDSDSDERNSDGAVTQNKTNISTASATVSAA
B3: PTPN12–600-709 (domain or fragment, UniProt Q05209 600-709, looked up)
chain: PLHSDDSDSDERNSDGAVTQNKTNISTASATVSAATSTESISTRKVLPMSIARHNIAGTTHSGAEKDVDVSEDSPPPLPERTPESFVLASEHNTPVRSEWSELQSQERSE
B4: PTPN12 C-terminal domain (600–780) (domain or fragment, UniProt Q05209 600-780, looked up)
chain: PLHSDDSDSDERNSDGAVTQNKTNISTASATVSAATSTESISTRKVLPMSIARHNIAGTTHSGAEKDVDVSEDSPPPLPERTPESFVLASEHNTPVRSEWSELQSQERSEQKKSEGLITSENEKCDHPAGGIHYEMCIECPPTFSDKREQISENPTEATDIGFGNRCGKPKGPRDPPSEWT
B5: PTPN12 634–709 (domain or fragment, UniProt Q05209 634-709, looked up)
chain: ATSTESISTRKVLPMSIARHNIAGTTHSGAEKDVDVSEDSPPPLPERTPESFVLASEHNTPVRSEWSELQSQERSE

This assay addresses T1, Filamin A domains 4-6, wild type. The assay can be described thus: SPR. (In general: In SPR one partner is held on a chip, and binding of the other changes the refractive index at the surface.)
Consider B1, for which the Kd (commonly the constant that tells how readily two partners part at equilibrium) was greater than 10000 µM.

For B2, the Kd was greater than 10000 µM.

In turn, B3 registered a Kd of 0.32 µM.

On to B4, for which the Kd is roughly 0.33 µM.

B5 gave a dissociation constant (Kd) of 0.27 µM.
